Source: patent US20260007756A1, “COMPOUND AND USE THEREOF” (COHERENT BIOPHARMA (SUZHOU) LIMITED, priority 2022, published 2026)
In brackets after ≈: the same amount, converted by molar mass. Like-named read-outs stand apart in the source and are kept apart here.

Assays:
[1] = Solubility study in PBS; format: physicochemical; conditions: aqueous buffer, thermodynamic from solid; PBS (pH 7.2 to 7.4); read-out: Solubility, concentration
Method: The mixture was vortexed for 2 min until the solid was dissolved. The solubility was calculated as: C=m/V, C: concentration, m: sample weight, V: PBS total volume.

[2] = Plasma stability study 2; format: in vitro ADME; conditions: mouse plasma, 37° C.
Method: • 1) The conjugate compounds were prepared into 1 mg/mL stock solutions with 0.1% TFA-acetonitrile water (1:1); • 2) 10 μL of 1 mg/mL compound stock solution was added into 90 μL of fresh plasma, and the mixture was well mixed by gentle shaking, and transferred to a thermostatic incubator at 37° C. for 0 h, 0.5 h, 1 h, 2 h, 4 h, 6 h, or 24 h of incubation; • 3) at the time points, samples were taken out and 300 μL of methanol solution (containing 10 ng/ml of terfenadine) was added for protein precipitation; • 4) the mixture was centrifuged (13 min, 4° C., 12000 rpm) and the supernatant was collected, and preserved in a −80° C. refrigerator; after collection, the samples were loaded for LC-MS analysis.

[3] = tested on: 22RV1; format: cell-based, human; conditions: 22RV1, 72 h, CellTiter-Glo
Text: (§1) Negative and blank controls were set.

[4] = tested on: MDA-MB-231; format: cell-based, human; conditions: MDA-MB-231, 72 h, CellTiter-Glo
Text: as §1

[5] = molecular target: T1, BRD4 (Homo sapiens, UniProt O60885); test: Target protein degradation activity, Western Blot; format: cell-based
T1 construct: endogenous in cells; host or cells: MDA-MB-231, 22RV1
Method: Information on cell lines: MDA-MB-231 (human breast cancer cell) and 22RV1 (human prostate cancer cell)
• 1) A proper amount of RIPA lysis buffer was added to the Protease Inhibitor Cocktail (1:100) a few minutes before use. • 2) The medium of the cells was discarded. The cells were collected by cell scraper, centrifuged, and washed twice with pre-cooled PBS. The lysis buffer was added at 300 μL per dish. The centrifuge tube was placed on ice and mixed by pipetting for 5 min to allow the lysis buffer to fully contact the cells. • 3) After 30 min of lysis, the lysate was collected, transferred to a centrifuge tube, and centrifuged for 15 min at 12000×g to pelletize the cell debris. • 4) The supernatant was transferred to a new centrifuge tube, for subsequent Western Blot. […]
The antibody marked by HRP was coupled with an enhanced chemiluminescence reagent for chromogenesis, and the exposure was conducted via an X-ray film. The positions of the antigen-antibody (primary antibody)-antibody (secondary antibody) complex on the nitrocellulose membrane were determined by means of development, washing, and fixation. […]

[6] = tested on: β-glucosidase; conditions: PBS pH 6.8, 25° C.
Method: • 1) CR202AL was formulated into a 500 μg/mL stock solution with PBS (pH 6.8); • 2) 100 μL of 500 μg/mL compound stock solution was added to 775 μL of PBS (pH=6.8) before 125 μL of 100 U/mL β-glucosidase was added, and the mixture was well mixed by gentle shaking. • 3) The cleavage reaction system in step 2) was transferred to a thermostatic incubator at 25° C. for 0 h, 1 h, 2 h, 4 h, or 24 h of incubation. Samples were taken and loaded at various time points for LC-MS analysis.

[7] = tested on: C4-2; conditions: C4-2, 72 h, CellTiter-Glo
Method: Cells were prepared in advance, trypsinized, collected, counted, diluted to 1.5×10^4 cells/mL in a complete cell culture medium, and plated in 96-well plates. The diluted cell suspension was added at 100 μL/well, and negative and blank control wells were set on each plate. The 96-well plates with the added cells were incubated overnight at 37° C. in a 5% CO2 incubator.
Samples were serially diluted with medium (serially 3-fold diluted from 10 μM) to 9 concentrations. The medium in the plates was discarded, and the drug solutions were added at 100 μL per well to a 96-well plate in triplicate. Negative and blank controls were set. The plates were incubated at 37° C. for 72 h in a 5% CO2 incubator.
The CellTiter-Glo buffer was thawed and warmed to room temperature, and the CellTiter-Glo substrate was warmed to room temperature. The CellTiter-Glo buffer was added to the flask containing CellTiter-Glo substrate to dissolve the substrate, thereby preparing a CellTiter-Glo working solution, which was then vortexed slowly to complete dissolution. The cell culture plates were equilibrated at room temperature for 30 min, before the CellTiter-Glo working solution was added at 50 μL/well (about half the volume of cell culture medium in each well). The plate was covered by aluminum foil to keep out of light. The culture plate was shaken on an orbital shaker for 2 min to induce cell lysis. The culture plate was left to stand at room temperature for 10 min to stabilize the luminescence signals. The luminescence signal was detected on a microplate reader (Molecular Devices SpectraMax iD5).
Four-parameter curves were fitted using GraphPad Prism 8.0.2 to give IC50 values.

[8] = tested on: SK-OV-3; test: Expansion inhibition of tumor cells (Example 10, CCK-8); format: cell-based; conditions: Homo sapiens, SK-OV-3 (FOLR1 overexpression), 72 h
Method: Samples were serially diluted with medium (serially 5-fold diluted from 10 μM) to 9 concentrations. […] Negative and blank controls were set.
A CCK-8 developing solution was added at 10 μL/well (10% of the liquid volume in the wells). The plates were incubated at 37° C. for a proper time (the OD value was controlled within the range of 1.0-2.5 as possible). The plate covers were removed, and the 96-well plates were loaded on a microplate reader (Molecular Devices SpectraMax iD5) to read the measurement at 450 nm.

## CC[C@@H]1C(=O)N(C)c2cnc(Nc3ccc(-c4cn([C@H]5CC[C@@H](N(CCOCCC#Cc6cccc7c6CN(C6CCC(=O)NC6=O)C7=O)C(=O)OCc6ccc(O[C@@H]7O[C@H](C(=O)O)[C@@H](O)[C@H](O)[C@H]7O)c(NC(=O)CCNC(=O)COCCOCCn7cc(C[C@H](NC(=O)[C@H](CCCCN)NC(=O)[C@H](CC(=O)O)NC(=O)[C@H](CC(=O)O)NC(=O)Cc8ccc(CNC(=O)NCCCC[C@H](NC(=O)N[C@@H](CCC(=O)O)C(=O)O)C(=O)O)cc8)C(=O)N[C@@H](CCCCNC(=O)CC[C@H](NC(=O)c8ccc(NCc9cnc%10[nH]c(N)nc(=O)c%10n9)cc8)C(=O)O)C(N)=O)nn7)c6)CC5)nn4)cc3OC)nc2N1C1CCCC1 (some centres unmarked) [CR202AL]
[1]
  solubility at 2 min: 5700 µg/mL (≈ 1910 µM)
[2]; 0 h
  CR20274 release rate (actual release/theoretical release): 0.01%
  Residual rate of principal component: 76.04%
[2]; 0.5 h
  CR20274 release rate (actual release/theoretical release): 0.47%
[2]; 0.5 h, read-out: Residual rate of principal component
  remaining at 0.5 h, 100 μg/mL: 69.8%
[2]; 1 h
  CR20274 release rate (actual release/theoretical release): 0.86%
[2]; 1 h, read-out: Residual rate of principal component
  remaining at 1 h, 100 μg/mL: 78.1%
[2]; 2 h
  CR20274 release rate (actual release/theoretical release): 0.96%
[2]; 2 h, read-out: Residual rate of principal component
  remaining at 2 h, 100 μg/mL: 75.6%
[2]; 4 h
  CR20274 release rate (actual release/theoretical release): 2.60%
[2]; 4 h, read-out: Residual rate of principal component
  remaining at 4 h, 100 μg/mL: 74.9%
[2]; 6 h
  CR20274 release rate (actual release/theoretical release): 3.69%
[2]; 6 h, read-out: Residual rate of principal component
  remaining at 6 h, 100 μg/mL: 57.1%
[2]; 24 h
  CR20274 release rate (actual release/theoretical release): 28.17%
  Residual rate of principal component: 1.20%
[3]
  IC50: 6.3 nM
[4]
  IC50: 2.5 nM
[5]; 3 nM over 6 h
  Degradation of BRD4 (Western Blot): almost completely degrading
[5]; at 24 h (FIG. 4B)
  Degradation of BRD4 (Western Blot): still retain strong degradation activity
[6]; 0 h
  CR20274 release rate of CR202AL after cleavage: 5.16%
  Principal component residue of CR202AL after cleavage: 100.00%
[6]; 1 h
  CR20274 release rate of CR202AL after cleavage: 107.33%
  Principal component residue of CR202AL after cleavage: 26.70%
[6]; 2 h
  CR20274 release rate of CR202AL after cleavage: 146.03%
  Principal component residue of CR202AL after cleavage: 9.75%
[6]; 4 h
  CR20274 release rate of CR202AL after cleavage: 146.54%
  Principal component residue of CR202AL after cleavage: 4.87%
[6]; 24 h
  CR20274 release rate of CR202AL after cleavage: 100.80%
  Principal component residue of CR202AL after cleavage: 0.00%
[7]
  IC50: 0.5 nM

## Cc1ncsc1-c1ccc(CNC(=O)C2CC(O)CN2C(=O)C(NC(=O)COCCOCC(=O)NC2(C(=O)NCCCn3cc(-c4ccc(OC(F)(F)F)cc4)c4cc(CN5CCN(Cc6c(Cl)cccc6Cl)CC5)ccc43)CCNCC2)C(C)(C)C)cc1 (centres unmarked) [CR202CF]
[8]
  IC50: 31.5 nM

## Cc1ncsc1-c1ccc(CNC(=O)C2CC(O)CN2C(=O)C(NC(=O)COCCOCCOCC(=O)NC2(C(=O)NCCCn3cc(-c4ccc(OC(F)(F)F)cc4)c4cc(CN5CCN(Cc6c(Cl)cccc6Cl)CC5)ccc43)CCNCC2)C(C)(C)C)cc1 (centres unmarked) [CR202CI]
[8]
  IC50: 0.3 nM
